Here are results for five molecules from patent US8058046B2, “Sesquiterpene synthases from patchouli” (Firmenich SA, priority 2003, dated 2011).

The nature of data set [1]: Enzyme assay: conversion of FPP to sesquiterpenes by recombinant sesquiterpene synthase, GC / GC-MS analysis. It counts as biochemical. Particulars: FPP as substrate; for main (major) sesquiterpene product formed: crude protein extract from E. coli expressing the recombinant synthase, GC-MS and retention index. Here is the method:
In a standard protein expression experiment, the expression plasmids containing the sesquiterpene synthase cDNAs as well as the empty plasmid (for negative control) were transformed into the BL21(DE3) or the BL21 STAR™ (DE3) E. coli cells (Novagen). Single colonies of transformed E. coli were used to inoculate 5 ml LB medium. After 5 to 6 hours of incubation at 37° C., the cultures were transferred to a 20° C. incubator and left 1 hour for equilibration. Expression of the protein was then induced by addition of 0.5 mM IPTG and the culture incubated over-night at 20° C. The next day, the cells were collected by centrifugation, resuspended in 0.5 ml Extraction Buffer (50 mM MOPSO pH 7, 5 mM DTT, 10% glycerol) and sonicated 3 times 30 s. The cell debris were sedimented by centrifugation 30 min at 18,000 g and the supernatant containing the soluble proteins was recovered. The expression of the sesquiterpene synthases was evaluated by separation of the protein extract on a SDS-PAGE, staining with coomassie blue and comparison to protein extract obtained from cells transformed with the empty plasmid.
The enzymatic assays were performed in Teflon sealed glass tubes using 50 to 100 μl of protein extract in a final volume of 1 mL Extraction Buffer supplemented with 15 mM MgCl2 and 100 to 250 μM FPP (Sigma). The medium was overlaid with 1 ml pentane and the tubes incubated over-night at 30° C. The pentane phase, containing the sesquiterpenes, was recovered and the medium extract with a second volume of pentane. The combined pentane fractions were concentrated under nitrogen and analyzed by Gas Chromatography on a on a Hewlett-Packard 6890 Series GC system using a 0.25 mm inner diameter by 30 m SPB-1 (Supelco) capillary column. The carrier gas was He at constant flow of 1.6 ml/min. Injection was done in splitless mode with the injector set at 200° C. and the oven programmed from 100° C. (0 min hold) at 7.5° C./min to 200° C. (0 min hold) followed by 20° C./min to 280° C. (2 min hold). Detection was made with a flame ionization detector. Compound identification was based on retention time identity with authentic standards when available. For confirmation of the products identities, samples were analyzed by combined capillary GC-MS using a Hewlett-Packard 6890 GC-quadrupole mass selective detector system, equipped with a 0.25 mm inner diameter by 30 m SPB-1 (Supelco) capillary column. The oven was programmed from 80° C. (0 min hold) to 280° C. at 7° C. at a constant flow of 1.5 ml/min He. The spectra were recorded at 70 eV with an electron multiplier voltage of 2200V. Retention time of the enzyme products were compared to the retention time of authentic standard, or the Kovats retention index was calculated and compared to published data (Joulain, D., and König, W. A. The Atlas of Spectral Data of Sesquiterpene Hydrocarbons, EB Verlag, Hamburg, 1998).
For the biochemical characterization of the sesquiterpene synthases for which the full-length cDNA was isolated, the cDNA was ligated into appropriate expression plasmids. This plasmid were used to transform E coli cells and after expression of the recombinant proteins, the E coli proteins were extracted and used to evaluate the biochemical conversion of FPP to sesquiterpene compounds (see Examples 5 and 6).

The next data set deals with BL21 (DE3) E. coli cells. Put plainly: In vivo sesquiterpene production assay in E. coli from the endogenous FPP pool. It is filed as cell-based. Particulars: E. coli cells expressing the synthase, 24 hours after 1 mM IPTG, pentane extract, GC / GC-MS; none with empty plasmid. Here is the method:
Experiments were performed using E. coli, to test the ability of the patchoulol synthase to synthesise, in vivo, sesquiterpenes from the endogenous FPP pool. Typical experiments for evaluation of in vivo sesquiterpene production are performed as follows. The expression plasmid containing the sesquiterpene synthase cDNA are transformed in BL21 (DE3) E. coli cells. Single colonies of transformed cells are used to inoculate 5 mL LB medium supplemented with the appropriate antibiotics. After 5 to 6 hours of incubation at 37° C., the culture were use to inoculate 100 ml TB medium supplemented with the appropriate antibiotics and the culture was incubated for 2 hours at 20° C. in a 250 mL shake flask. After 2 hours incubation, expression of the protein was induced by the addition of 1 mM IPTG. The cultures were left 24 hours and were then directly extracted twice with one volume of pentane. The two solvent fractions were recovered, combined and concentrated to 0.5 mL prior to GC-MS analysis. […] Patchoulol could be clearly detected by GC analysis of the culture extract, and no patchoulol was detected with cells transformed with the empty plasmid. The identity of the product could be confirmed by GC-MS, but the amount of sesquiterpene produced was relatively low and estimation of the quantities was not possible.

Where [2] appears, read: estimated by GC (flame ionization detection).

B1: PatTpsBF2: recombinant (−)-germacrene D synthase from patchouli, cDNA SEQ ID NO:2 (protein)
chain: MELKNQSVAIISSNASRPLAHYHPDVWGDRFLLYKPNPSSEAGQKPVIEELKQQVRSELKEASNDYMRQLKMVDAIQRLGIESLFEEDIDNALKNLSENFDDYCKDKHDLYAIALSFRLLRQHGYRISCDVFDKLKDGEDGFKVPPSDEALAVVELLEATHLRIHGEVVLDRAFVFARIHLESIEANLNNPVAKQVHNALYGYSNRRGMQQVEARKYIPIYEQYASHHQGLLKLATLNFNLQQTMHKRELSELSRWYRDLEVPTMLPFARQRLVETYFWDAGVVFEPENDVARMILVKVQCLISFLDDTFDAYGSFEELQLFTDAINTWDVSCLDQLPDYMKIIYKALLGVFEVIEKLMIKQGTLYRLNYAKEAMKIVVGGYFVEAKWREEKSKPTTQEYMQVATKSAGYMTLIITSFLGMEANIATKEAFDWVLSEPDVMKAAITLARLTNDIVGIELEKERKHIATAVEVYEDEHKLSMQEAMVEIKNQIESGWKTINEAFLRPTKFPTPILYRILNYCRVLEVIYDKSDRYTHVDPALQDIIKQLYIHPIP
modifications: Pogostemon cablin
In the case of B1, in data set [1], the “main (major) sesquiterpene product formed” value is recorded as “(−)-germacrene D”. In addition, the “sesquiterpene synthase activity in recombinant E. coli protein extract” value (shortened to “sesquiterpene synthase activity”) in data set [1] (crude protein extract) is listed as “could be detected”.

B2: PatTps177: recombinant patchoulol synthase from patchouli, cDNA SEQ ID NO:5 (protein)
chain: MELYAQSVGVGAASRPLANFHPCVWGDKFIVYNPQSCQAGEREEAEELKVELKRELKEASDNYMRQLKMVDAIQRLGIDYLFVEDVDEALKNLFEMFDAFCKNNHDMHATALSFRLLRQHGYRVSCEVFEKFKDGKDGFKVPNEDGAVAVLEFFEATHLRVHGEDVLDNAFDFTRNYLESVYATLNDPTAKQVHNALNEFSFRRGLPRVEARKYISIYEQYASHHKGLLKLAKLDFNLVQALHRRELSEDSRWWKTLQVPTKLSFVRDRLVESYFWASGSYFEPNYSVARMILAKGLAVLSLMDDVYDAYGTFEELQMFTDAIERWDASCLDKLPDYMKIVYKALLDVFEEVDEELIKLGAPYRAYYGKEAMKYAARAYMEEAQWREQKHKPTTKEYMKLATKTCGYITLIILSCLGVEEGIVTKEAFDWVFSRPPFIEATLIIARLVNDITGHEFEKKREHVRTAVECYMEEHKVGKQEVVSEFYNQMESAWKDINEGFLRPVEFPIPLLYLILNSVRTLEVIYKEGDSYTHVGPAMQNIIKQLYLHPVPY
modifications: Pogostemon cablin
In the case of B2, the “amount of (+)-germacrene A among sesquiterpenes produced” value in data set [1] (estimated by GC (FID), detected as the thermal rearrangement product β-element) is reported as 1.6%. In data set [1] (setting [2]), the “amount of (Z,E)-α-farnesene among sesquiterpenes produced” value was 1.35%, the “amount of (trans)-alpha-farnesene among sesquiterpenes produced” value is given as 3%, the “amount of (−)-patchoulol among sesquiterpenes produced” value is 39.1% and the “amount of alpha-guaiene among sesquiterpenes produced” value was 14%. In addition, in data set [1] (setting [2]), the “amount of alpha-humulene among sesquiterpenes produced” value is 1.1%, the “amount of seychellene among sesquiterpenes produced” value is 4%, the “amount of trans-β-caryophyllene among sesquiterpenes produced” value is 4.5% and the “amount of trans-β-farnesene among sesquiterpenes produced” value is listed as 3%. Moreover, in data set [1] (setting [2]), the “amount of α-bulnesene among sesquiterpenes produced” value was 8.6%, the “amount of α-patchoulene among sesquiterpenes produced” value was 8.9%, the “amount of γ-patchoulene among sesquiterpenes produced” value was 2.5% and the “amount of δ-patchoulene among sesquiterpenes produced” value is on record as 2.1%. In data set [1], the “main (major) sesquiterpene product formed” value was “(−)-patchoulol”. In data set [1] (crude protein extract, GC-MS), the “number of other sesquiterpenes produced besides the main product” value is “at least 18”. Moreover, the “in vivo production of patchoulol from endogenous FPP” value in the data set on BL21 (DE3) E. coli cells was “produced patchoulol”.

B3: PatTpsB15: another recombinant (−)-germacrene D synthase from patchouli, cDNA SEQ ID NO:4 (protein)
chain: MDLNEITSSSRPLANYHPNVWGDRFLLHEPEFTCQAGEKQLVEELKEEVRRELKEASNDYLRQLKMVDAIQRLGIEYLFEEEIDEALRNLLAKFENYCKDNHDMYATALSFRLLRQHGYKVSCEVFDKFKDGEDGFKVEEVMAVLELFEATHMRIHGEDVLDQAFVFTRNYLQSIHATLSNPIAKQVHNALNGYSCRRGMPRIEARKYIPIYEEYGCHHKALLKLAKLDFNLLQSMHKRELTQLYRWWKDLEMPTKLPYIRDRLVETYFWDMGFYFEPQYALARNILVKVQCLVSIFDDTFDAYGAFKELQLFKDAIDRWSISCLDELPEYMQIIYKLVLDVFEEIESHMIKQGTSYRLDYAREAIKIVIGGYFDEAKWREEEYKPRMEEYMKVATKSAAYLTLIIVSFVGMKNDIATPQAFQWVLSEPQIITASLALARLSNDLVGIEFEKERKYIATAVELYEEEHKVSKEEAVLELRHETESAWKEINEALLEPTTFATPILDRILNSARVLEVFYDKTDRYTHVDLELQNIIAQLYIHPIP
modifications: Pogostemon cablin
Turning to B3, the “main (major) sesquiterpene product formed” value in data set [1] is listed as “(−)-germacrene D”. In addition, in data set [1] (crude protein extract), the “sesquiterpene synthase activity” value was “relatively good metabolization of FFP”.

B4: PatTpsA: recombinant γ-curcumene synthase from patchouli (Pogostemon cablin), cDNA SEQ ID NO:1 (protein)
chain: MAAFTANAVDMRPPVITIHPRSKDIFSQFSLDDKLQKQYAQGIEALKEEARSMLMAAKSAKVMILIDTLERLGLGYHFEKEIEEKLEAIYKKEDGDDYDLFTTALRFRLLRQHQRRVPCSVFDKFMNKEGKFEEEPLISDVEGLLSLYDAAYLQIHGEHILQEALIFTTHHLTRIEPQLDDHSPLKLKLNRALEFPFYREIPIIYAHFYISVYERDDSRDEVLLKMAKLSYNFLQNLYKKELSQLSRWWNKLELIPNLPYIRDSVAGAYLWAVALYFEPQYSDVRMAIAKLIQIAAAVDDTYDNYATIREAQLLTEALERLNVHEIDTLPDYMKIVYRFVMSWSEDFERDATIKEQMLATPYFKAEMKKLGRAYNQELKWVMERQLPSFEEYMKNSEITSGVYIMFTVISPYLNSATQKNIDWLLSQPRLASSTAIVMRCCNDLGSNQRESKGGEVMTSLDCYMKQHGASKQETISKFKLIIEDEWKNLNEEWAATTCLPKVMVEIFRNYARIAGFCYKNNGDAYTSPKIVQQCFDALFVNPLRI
modifications: Pogostemon cablin
Turning to B4, the “main (major) sesquiterpene product formed” value in data set [1] is reported as “γ-curcumene”. For the same molecule, the “sesquiterpene synthase activity” value in data set [1] (crude protein extract) is on record as “low”.

B5: PatTpsCF2: recombinant (+)-germacrene A synthase from patchouli, cDNA SEQ ID NO:3 (protein)
chain: MAVQISETVRPFANFSPNPSLWGDQFINHKSKTQQISRIYLEEIEGLKNEVKCMLTSTPEGKMADTVNLIDTLERLGVSYHFEKEIEEKMKHLFNLIKADNYKDHEGCDLYTDALHFRLFRQHGYPISSGIFNKWMDGNGKFKESIKSDAKGLLSLYEACCLRTHGDTLLDEALVFATASLKSMAANLASPLRKQVEHALFQHLHFGIPRVEARHFITFYEEEEHKNEMLLRFAKLDFNALQALHKEELSEISKWWKDLDLISKLPYARDRVVESYFWAVGVYYQPKYSRARIMLTKTIAMTAILDDTYDSYGTLEELDVLTKAIERWDIKEINGLPEYIKGFYKQVLKLYQQLEEELAKEGRSYAVYYAIEACKELARSYAVEAKWFKKGYLPGFEEYLINSLVTSTAGYLNIISFFGVESVTKEDFEWFSKKPRIAVATQIITRVIDDIATYEVEKEKGQSATGIDCYMKEHGVSKEKAMQRFYEMSTNAWKDINEEGLSWPSSFSRDIFVQLRNFSRMVDVTYGKNEDGYSKPEKILKPLIIALFVDQIKL
modifications: Pogostemon cablin
As for B5, the “main (major) sesquiterpene product formed” value in data set [1] was “(+)-germacrene A”. Besides, the “sesquiterpene synthase activity” value in data set [1] (crude protein extract) is “easily detected”.
